{"source": "patent US20260242839A1", "about": "“GLYCOSIDE PRODUCT BIOSYNTHESIS AND RECOVERY” (Manus Bio Inc., priority 2023, published 2026)", "molecules": {"B1": {"name": "SEQ ID NO: 83: UGT73C33 (Glycyrrhiza uralensis) (protein, listed as Glycyrrhiza sp.)", "chain": "MAVFQANQPHFVLFPLMAQGHIIPMIDIARLLAQRGAIVTIFTTPKNASRFTSVLSRAVSSGLQIRLVHLHFPSKEAGLPEGCENLDMVASHDMICNIFQAIRMLQKQAEELFETLTPKPSCIISDFCIPWTTQVAEKHHIPRISFHGFSCFCLHCMLKIHTSKVLEGITSESEYFTVPGIPDQIQVTKQQVPGPMIDEMKEFGEQMRDAEIRSYGVIINTFEELEKAYVNDYKKERNGKVWCIGPVSLCNKDGLDKAQRGNKASISEHHCLEWLDLQQPNSVIYVCLGSLCNLTPPQLMELALGLEATKRPFIWVIREGNKFEELEKWISEEGFEERIKGRGLIIRGWAPQVLILSHPSIGGFLTHCGWNSTLEGVTAGVPMVTWPLFADQFLNEKLVTQVLRIGVSLGVDVPLKWGEEEKVGVQVKKEGIEKAICMVMDEGEESKERRERAKELSEMAKRAVEKDGSSHLNMTMLIQDIMQQSSSKVET"}, "B2": {"name": "SEQ ID NO: 46: CmaUGT1 (Cucurbita maxima) (protein, listed as Cucurbita maxima)", "chain": "MELSHTHHVLLFPFPAKGHIKPFFSLAQLLCNAGLRVTFLNTDHHHRRIHDLNRLAAQLPTLHFDSVSDGLPPDEPRNVFDGKLYESIRQVTSSLFRELLVSYNNGTSSGRPPITCVITDVMFRFPIDIAEELGIPVFTFSTFSARFLFLIFWIPKLLEDGQLRYPEQELHGVPGAEGLIRWKDLPGFWSVEDVADWDPMNFVNQTLATSRSSGLILNTFDELEAPFLTSLSKIYKKIYSLGPINSLLKNFQSQPQYNLWKEDHSCMAWLDSQPRKSVVFVSFGSVVKLTSRQLMEFWNGLVNSGMPFLLVLRSDVIEAGEEVVREIMERKAEGRWVIVSWAPQEEVLAHDAVGGFLTHSGWNSTLESLAAGVPMISWPQIGDQTSNSTWISKVWRIGLQLEDGFDSSTIETMVRSIMDQTMEKTVAELAERAKNRASKNGTSYRNFQTLIQDITNIIETHI"}, "B3": {"name": "SEQ ID NO: 17: SrUGT85C2 (Stevia rebaudiana) (protein, listed as Stevia rebaudiana)", "chain": "MDAMATTEKKPHVIFIPFPAQSHIKAMLKLAQLLHHKGLQITFVNTDFIHNQFLESSGPHCLDGAPGFRFETIPDGVSHSPEASIPIRESLLRSIETNFLDRFIDLVTKLPDPPTCIISDGFLSVFTIDAAKKLGIPVMMYWTLAACGFMGFYHIHSLIEKGFAPLKDASYLTNGYLDTVIDWVPGMEGIRLKDFPLDWSTDLNDKVLMFTTEAPQRSHKVSHHIFHTFDELEPSIIKTLSLRYNHIYTIGPLQLLLDQIPEEKKQTGITSLHGYSLVKEEPECFQWLQSKEPNSVVYVNFGSTTVMSLEDMTEFGWGLANSNHYFLWIIRSNLVIGENAVLPPELEEHIKKRGFIASWCSQEKVLKHPSVGGFLTHCGWGSTIESLSAGVPMICWPYSWDQLTNCRYICKEWEVGLEMGTKVKRDEVKRLVQELMGEGGHKMRNKAKDWKEKARIAIAPNGSSSLNIDKMVKEITVLARN"}, "B4": {"name": "SEQ ID NO: 81: UGT enzyme (Camelina sativa) (protein, listed as Camelina sativa)", "chain": "MASEKTLQVHPPLHFVLFPFMAQGHMIPMVDIARLLAQRGATVTIVTTRYNAGRFENVLSRAVESGLPINIVHVKFPYEEVGLPKGKENIDSLDSMELMVPFFKAVNMLQDPVVKLMEEMESRPSCIISDLLLPYTSKIAKKFNIPKIVFHGISCFCLLCVHVLRRNLEILTNLKSDKEYFLVPSFPDRVEFTKPQVTVETNASGDWKEFLDEMVEAEDTSYGVIINTFEELEPAYVKDYKDARAGNVWSIGPVSLCNKAGVDKAERGNKATIDQDECLKWLDSKEEGSVLYVCLGSICNLPLVQLKELGLGLEESQRPFIWVIRGWEKYNELSEWMVESGFEERIRERGLLIRGWAPQVLILSHPSVGGFLTHCGWNSTVEGITSGVPLITWPLFGDQFCNQTLVVQVLKAGVSVGVEEVMKWGEEEKIGVLVDKEGVKKAVEDLMGESDDAKERTKRVKELGGLAHKAVEEGGSSHSNITLFLQDIRQVQSV"}, "B5": {"name": "M152A_S153A: SEQ ID NO: 15 with mutations M152A, S153A (protein)", "chain": "MARRTKNSSGMSLAERFWLTLSRSSLVVGRSCVEFEPETVPLLSTLRGKPITFLGLMPPLPEGRREDGEDATVRWLDAQPAKSVVYVALGSEVPLGVEKVHELALGLELAGTRFLWALRKPTGVSDADLLPAGFEERTRGRGVVATRWVPQAAILAHAAVGAFLTHCGWNSTIEGLMFGHPLIMLPITGDQGPNARLIEAKNAGLQVARNDGDGSFDREGVAAAIRAVAVEEESSKVFQEKAKKLQEIVADMACHERYIDGFIQQLRSYKDDSGYSSSYAAAAGMHVVICPWLAFGHLLPCLDLAQRLASRGHRVSFVSTPRNISRLPPVRPALAPLVAFVALPLPRVEGLPDGAESTNDVPHDRPDMVELHRRAFDGLAAPFSEFLGTACADWVIVDSFHHWAAAAALEHKVPCAMMFLGSAEMIASIADERLEHAETESPAAAGQGRPAAAPTFEVARMKLIR"}, "B6": {"name": "H402W: mutation to UGT enzyme of SEQ ID NO: 15 (protein)", "chain": "B5 chain with A152M, A153S, H402W"}, "B7": {"name": "S125V: mutation to UGT enzyme of SEQ ID NO: 15 (protein)", "chain": "B5 chain with S125V, A152M, A153S"}, "B8": {"name": "P442D: mutation to UGT enzyme of SEQ ID NO: 15 (protein)", "chain": "B5 chain with A152M, A153S, P442D"}, "B9": {"name": "SEQ ID NO: 82: UGT73F24 (Glycyrrhiza uralensis) (protein, listed as Glycyrrhiza sp.)", "chain": "MADVAEEQPLKIYFIPYLAAGHMIPLCDIATLFASRGHHVTIITTPSNAQTLRESHHFRVQTIQFPSQEVGLPAGVQNLTAVTNLDDSYKIYHATMLLRKHIEDFVERDPPDCIVADFLFPWVDDVATKLHIPRLVFNGFTLFTICAMESHKAHPLPVDAASGSFVIPDFPHHVTINSTPPKRTKEFVDPLLTEAFKSHGFLINSFVELDGEECVEHYERITGGHKAWHLGPAFLVHRTAQDRGEKSVVSTQECLSWLDSKRDNSVLYICFGTICYFPDKQLYEIASAIEASGHEFIWVVPEKRGNADESEEEKEKWLPKGFEERNNGKKGMIIRGWAPQVAILGHPAVGGFLTHCGWNSTVEAVSAGVPMITWPVHSDQYFNEKLITQVRGIGVEVGAEEWIVTAFRETEKLVGRDRIERAVRRVMDGGDEAVQIRRRARELGEMARQAVQEGGSSHTNLTALINDLKRWRDSKQLN"}, "B10": {"name": "SEQ ID NO: 80: SrUGT73E1, with optional His tag (Stevia rebaudiana) (protein, listed as Stevia rebaudiana)", "chain": "MAHHHHHHVGTGSNDDDDKSPDPNWASTSELVFIPSPGAGHLPPTVELAKLLLHRDQRLSVTIIVMNLWLGPKHNTEARPCVPSLRFVDIPCDESTMALISPNTFISAFVEHHKPRVRDIVRGIIESDSVRLAGFVLDMFCMPMSDVANEFGVPSYNYFTSGAATLGLMFHLQWKRDHEGYDATELKNSDTELSVPSYVNPVPAKVLPEVVLDKEGGSKMFLDLAERIRESKGIIVNSCQAIERHALEYLSSNNNGIPPVFPVGPILNLENKKDDAKTDEIMRWLNEQPESSVVFLCFGSMGSFNEKQVKEIAVAIERSGHRFLWSLRRPTPKEKIEFPKEYENLEEVLPEGFLKRTSSIGKVIGWAPQMAVLSHPSVGGFVSHCGWNSTLESMWCGVPMAAWPLYAEQTLNAFLLVVELGLAAEIRMDYRTDTKAGYDGGMEVTVEEIEDGIRKLMSDGEIRNKVKDVKEKSRAAVVEGGSSYASIGKFIEHVSNVTI", "modifications": "optional His tag"}, "B11": {"name": "pgm: E. coli pgm (phosphoglucomutase), complemented on plasmid (protein, listed as Escherichia coli)", "chain": "MAIHNRAGQPAQQSDLINVAQLTAQYYVLKPEAGNAEHAVKFGTSGHRGSAARHSFNEPHILAIAQAIAEERAKNGITGPCYVGKDTHALSEPAFISVLEVLAANGVDVIVQENNGFTPTPAVSNAILVHNKKGGPLADGIVITPSHNPPEDGGIKYNPPNGGPADTNVTKVVEDRANALLADGLKGVKRISLDEAMASGHVKEQDLVQPFVEGLADIVDMAAIQKAGLTLGVDPLGGSGIEYWKRIGEYYNLNLTIVNDQVDQTFRFMHLDKDGAIRMDCSSECAMAGLLALRDKFDLAFANDPDYDRHGIVTPAGLMNPNHYLAVAINYLFQHRPQWGKDVAVGKTLVSSAMIDRVVNDLGRKLVEVPVGFKWFVDGLFDGSFGFGGEESAGASFLRFDGTPWSTDKDGIIMCLLAAEITAVTGKNPQEHYNELAKRFGAPSYNRLQAAATSAQKAALSKLSPEMVSASTLAGDPITARLTAAPGNGASIGGLKVMTDNGWFAARPSGTEDAYKIYCESFLGEEHRKQIEKEAVEIVSEVLKNA"}}, "key": {"steviol glycoside [1]": {"tested_on": "steviol glycoside", "experiment": "steviol glycoside bioconversion with overexpressed genes complemented on plasmid", "format": "cell-based, E. coli", "conditions": "chassis strain with UGT SEQ ID NOS: 14 and 24; stevia leaf extract and glucose fed; 37° C., 48 hr; FIG. 2", "description": "Other bacterial genes were overexpressed, and bioconversion tested as compared to the chassis strain expressing UGT enzymes of SEQ ID NOS: 14 and 24. […] Fold improvement is with respect to total steviol glycoside conversion. Stevia leaf extract and glucose were fed to the bioconversion strains. Bioconversion took place at 37° C. for 48 hr. Data were quantified by reverse phase LC DAD to quantify conversion of steviol glycosides."}, "mogrol": {"tested_on": "mogrol", "experiment": "primary glycosylation at C3 and C24 hydroxyls of mogrol by cells expressing UGT enzymes", "format": "cell-based, E. coli", "conditions": "mogrol fed; 37° C., 48 hrs; LCMS/MS", "description": "Specifically, mogrol was fed to cells expressing various UGT enzymes. Reactions were incubated at 37° C. for 48 hrs. Products were quantified by LCMS/MS with authentic standards of each compound."}, "steviol glycoside [2]": {"tested_on": "steviol glycoside", "experiment": "steviol glycoside bioconversion by E. coli expressing individual mutations of UGT SEQ ID NO: 15", "format": "cell-based", "conditions": "fold improvement of % conversion vs parent UGT SEQ ID NO: 15; stevia leaf extract and glucose fed; 37° C., 48 hr", "description": "Fold improvement is with respect to % steviol glycoside conversion of the parent UGT enzyme of SEQ ID NO: 15. SEQ ID NO: 16 has the following mutations from SEQ ID NO: 15: M152A, S153A. Stevia leaf extract and glucose were fed to the bioconversion strains. Bioconversion took place at 37° C. for 48 hr. Data were quantified by reverse phase LC DAD to quantify conversion of steviol glycosides.\nFold improvement (FI) is with respect to % steviol glycoside conversion."}}, "note": "Substitutions are numbered along the chain they refer to. Names and notes keep the numbering of the source.", "data": [{"molecule": "adk: E. coli adk (adenylate kinase), complemented on plasmid", "values": [{"measurement": "improvement of total steviol glycoside conversion by gene complementation", "setting": "steviol glycoside [1]", "result": "improved overall glycosylation"}]}, {"molecule": "B1", "values": [{"measurement": "C3 O-Glucosylation", "setting": "mogrol", "result": "No"}, {"measurement": "C24 O-Glucosylation", "setting": "mogrol", "result": "Yes"}]}, {"molecule": "B2", "values": [{"measurement": "C3 O-Glucosylation", "setting": "mogrol", "result": "Yes"}, {"measurement": "C24 O-Glucosylation", "setting": "mogrol", "result": "No"}]}, {"molecule": "B3", "values": [{"measurement": "C3 O-Glucosylation", "setting": "mogrol", "result": "No"}, {"measurement": "C24 O-Glucosylation", "setting": "mogrol", "result": "Yes"}]}, {"molecule": "B4", "values": [{"measurement": "C3 O-Glucosylation", "setting": "mogrol", "result": "No"}, {"measurement": "C24 O-Glucosylation", "setting": "mogrol", "result": "Yes"}]}, {"molecule": "B5", "values": [{"measurement": "FI % Stevioside −> rebE", "setting": "steviol glycoside [2]", "result": 1.32}, {"measurement": "FI % rebA −> rebD", "setting": "steviol glycoside [2]", "result": 1.26}]}, {"molecule": "B6", "values": [{"measurement": "FI % Stevioside −> rebE", "setting": "steviol glycoside [2]", "result": 1.07}, {"measurement": "FI % rebA −> rebD", "setting": "steviol glycoside [2]", "result": 1.09}]}, {"molecule": "B7", "values": [{"measurement": "FI % Stevioside −> rebE", "setting": "steviol glycoside [2]", "result": 1.16}, {"measurement": "FI % rebA −> rebD", "setting": "steviol glycoside [2]", "result": 1.13}]}, {"molecule": "B8", "values": [{"measurement": "FI % Stevioside −> rebE", "setting": "steviol glycoside [2]", "result": 1.18}, {"measurement": "FI % rebA −> rebD", "setting": "steviol glycoside [2]", "result": 1.19}]}, {"molecule": "B9", "values": [{"measurement": "C3 O-Glucosylation", "setting": "mogrol", "result": "No"}, {"measurement": "C24 O-Glucosylation", "setting": "mogrol", "result": "Yes"}]}, {"molecule": "B10", "values": [{"measurement": "C3 O-Glucosylation", "setting": "mogrol", "result": "No"}, {"measurement": "C24 O-Glucosylation", "setting": "mogrol", "result": "Yes"}]}, {"molecule": "B11", "values": [{"measurement": "improvement of total steviol glycoside conversion by gene complementation", "setting": "steviol glycoside [1]", "result": "improved overall glycosylation"}]}]}
